Data: US20230212587A1, “Mutant Hydroxyphenylpyruvate Dioxygenase Polypeptide, Encoding Gene Thereof and Use Therefor” (Beijing Dabeinong Biotechnology Co., Ltd., priority 2019, published 2023)

B1: AsHPPDm-F372A-02: Avena sativa HPPD mutant F372A, SEQ ID NO: 4; gene SEQ ID NO: 6 (protein)
chain: MPPTPATATGAAAAAVTPEHAARSFPRVVRVNPRSDRFPVLSFHHVELWCADAASAAGRFSFALGAPLAARSDLSTGNSAHASLLLRSGALAFLFTAPYAPPPQEAATAAATASIPSFSADAARTFAAAHGLAVRSVGVRVADAAEAFRVSVAGGARPAFAPADLGHGFGLAEVELYGDVVLRFVSYPDETDLPFLPGFERVSSPGAVDYGLTRFDHVVGNVPEMAPVIDYMKGFLGFHEFAEFTAEDVGTTESGLNSVVLANNSEAVLLPLNEPVHGTKRRSQIQTYLEYHGGPGVQHIALASNDVLRTLREMRARTPMGGFEFMAPPQAKYYEGVRRIAGDVLSEEQIKECQELGVLVDRDDQGVLLQIATKPVGDRPTFFLEMIQRIGCMEKDEVGQEYQKGGCGGFGKGNFSELFKSIEDYEKSLEVKQSVVAQKS
modifications: AsHPPDm-F372A Amido Acid Sequence
B2: AsHPPDm-F372A-A110: Avena sativa HPPD with F372A and deletion of alanine at position 110, SEQ ID NO: 412 (protein)
chain: MPPTPATATGAAAAAVTPEHAARSFPRVVRVNPRSDRFPVLSFHHVELWCADAASAAGRFSFALGAPLAARSDLSTGNSAHASLLLRSGALAFLFTAPYAPPPQEAATAATASIPSFSADAARTFAAAHGLAVRSVGVRVADAAEAFRVSVAGGARPAFAPADLGHGFGLAEVELYGDVVLRFVSYPDETDLPFLPGFERVSSPGAVDYGLTRFDHVVGNVPEMAPVIDYMKGFLGFHEFAEFTAEDVGTTESGLNSVVLANNSEAVLLPLNEPVHGTKRRSQIQTYLEYHGGPGVQHIALASNDVLRTLREMRARTPMGGFEFMAPPQAKYYEGVRRIAGDVLSEEQIKECQELGVLVDRDDQGVLLQIATKPVGDRPTFFLEMIQRIGCMEKDEVGQEYQKGGCGGFGKGNFSELFKSIEDYEKSLEVKQSVVAQKS
modifications: AsHPPDm-F372A-A110 Amino Acid Sequence
B3: PfHPPDm-F372A-02: Pseudomonas fluorescens HPPD mutant F372A, SEQ ID NO: 30 (protein)
chain: MADLYENPMGLMGFEFIEFASPTPGTLEPIFEIMGFTKVATHRSKNVHLYRQGEINLILNNEPNSIASYFAAEHGPSVCGMAFRVKDSQKAYNRALELGAQPIHIDTGPMELNLPAIKGIGGAPLYLIDRFGEGSSIYDIDFVYLEGVERNPVGAGLKVIDHLTHNVYRGRMVYWANFYEKLFNFREARYFDIKGEYTGLTSKAMSAPDGMIRIPLNEESSKGAGQIEEFLMQFNGEGIQHVAFLTDDLVKTWDALKKIGMRFMTAPPDTYYEMLEGRLPDHGEPVDQLQARGILLDGSSVEGDKRLLLQIASETLMGPVFFEFIQRKGDDGFGEGNFKALFESIERDQVRRGVLTAD
modifications: PfHPPDm-F372A Amino Acid Sequence
B4: ZmHPPDm-F372A-02: Zea mays HPPD mutant F372A, SEQ ID NO: 20 (protein)
chain: MPPTPTAAAAGAAVAAASAAEQAAFRLVGHRNFVRFNPRSDRFHTLAFHHVELWCADAASAAGRFSFGLGAPLAARSDLSTGNSAHASLLLRSGSLSFLFTAPYAHGADAATAALPSFSAAAARRFAADHGLAVRAVALRVADAEEAFRTSVAAGARPAFGPVDLGRGFRLAEVELYGDVVLRYVSYPDGAAGEPFLPGFEGVASPGAADYGLSRFDHIVGNVPELAPAAAYFAGFTGFHEFAEFTTEDVGTAESGLNSMVLANNSENVLLPLNEPVHGTKRRSQIQTFLDHHGGPGVQHMALASDDVLRTLREMQARSAMGGFEFMAPPTSDYYDGVRRRAGDVLTEAQIKECQELGVLVDRDDQGVLLQIAPKPVGDRPTLFLEIIQRIGCMERDEKGQEYQKGGCGGFGKGNFSQLFKSIEDYEKSLEAMQAAAAATAQGS
modifications: ZmHPPDm-F372A Amino Acid Sequence

System: soybean T1 plants
Experiment: Herbicide tolerance of transgenic soybean T1 plants to topramezone
Assay type: in vivo
Details: topramezone 50 and 100 g ai/ha, 7 DAT, compared to control vector DBN11375NN and wild-type
Source text: The Arabidopsisthaliana T1 plants into which the AsHPPDm-F372A-02 nucleotide sequence was introduced, Arabidopsis thaliana T1 plants into which the AsHPPD-02 nucleotide sequence was introduced and wild-type Arabidopsisthaliana plants (18 days after sowing) were sprayed with topramezone at four different concentrations, i.e., 25 g ai/ha (one-fold field concentration, 1×), 50 g ai/ha (two-fold field concentration, 2×), 100 g ai/ha (four-fold field concentration, 4×) and 0 g ai/ha (water, 0×) to determine the tolerance of Arabidopsisthaliana to the herbicide. The degree of damage caused by the herbicide was measured for each plant according to the proportion of bleached leaf area (the proportion of bleached leaf area=bleached leaf area/total leaf area×100%) 7 days after spraying (7 DAT): the case where there is basically no bleached phenotype is defined as grade 0, the case where the proportion of bleached leaf area is less than 50% is defined as grade 1,the case where the proportion of bleached leaf area is more than 50% is defined as grade 2, and the case where the proportion of bleached leaf area is 100% grade is defined as grade 3.
The soybean T1 plants into which the AsHPPDm-F372A-02 nucleotide sequence was introduced, soybean T1 plants into which the ZmHPPDm-F372A-02 nucleotide sequence was introduced, soybean T1 plants into which the PfHPPDm-F372A-02 nucleotide sequence was introduced, soybean T1 plants into which the AsHPPDm-F372A-A110 nucleotide sequence was introduced, soybean T1 plants into which, the PfHPPDm-F372A-G413W nucleotide sequence was introduced, soybean T1 plants into which the control vector DBN11375NN was introduced and wild-type soybean plants (V3-V4 at seedling stage) were sprayed with topramezone at two different concentrations respectively, i.e. 50 g ai/ha (2-fold field concentration, 2 ×) and 100 g ai/ha (4-fold field concentration, 4 ×) to detect the herbicide tolerance of soybean plants. According to the method in point 6 of Example 1, after 7 days of spraying (7 DAT), the damage degree of each plant by the herbicide was statistically analyzed, and the scoring and resistance evaluation were carried out accordingly. The soybean plants into which the AsHPPDm-F372A-02 nucleotide sequence was introduced were of two strains in total (S1 and S2), the soybean plants into which the ZmHPPDm-F372A-02 nucleotide sequence was introduced were of two strains in total (S3 and S4), the soybean plants into which the PfHPPDm-F372A-02 nucleotide sequence was introduced were of two strains in total (S5 and S6), the soybean plants into which the AsHPPDm-F372A-Al 10 nucleotide sequence was introduced were of two strains in total (S7 and S8), the soybean plants into which the PfHPPDm-F372A-G413W nucleotide sequence was introduced were of two strains in total (S9 and S10), the soybean plants into which the control vector DBN11375NN nucleotide sequence was introduced were of one strain in total (S11), and the wild-type soybean plants were of one strain in total (CK1); and 8 plants were selected from each strain and detected.

Molecule	tolerance to topramezone, in words
B1	higher tolerance
B2	higher tolerance
B3	higher tolerance
B4	higher tolerance
